Data reported in patent US9029508 (dated 2015).

B1: DVD465 DLL4 arm (antibody)
chain 1: EVQLVESGGGLVQPGGSLRLSCAASGFTFTDNWISWVRQAPGKGLEWVGYISPNSGFTYYADSVKGRFTISADTSKNTAYLQMNSLRAEDTAVYYCARDNFGGYFDYWGQGTLVTVSS
chain 2: DIQMTQSPSSLSASVGDRVTITCRASQDVSTAVAWYQQKPGKAPKLLIYSASFLYSGVPSRFSGSGSGTDFTLTISSLQPEDFATTYYCQQSYTGTVTFGQGTKVEIKR
modifications: DVD-Ig outer
B2: DVD483 DLL4 arm (antibody)
chain 1: EVQLVESGGGLVQPGGSLRLSCAASGFTFTDNWISWVRQAPGKGLEWVGYISPNSGFTYYADSVKGRFTISADTSKNTAYLQMNSLRAEDTAVYYCARDNFGGYFDYWGQGTLVTVSS
chain 2: DIQMTQSPSSLSASVGDRVTITCRASQDVSTAVAWYQQKPGKAPKLLIYSASFLYSGVPSRFSGSGSGTDFTLTISSLQPEDFATTYYCQQSYTGTVTFGQGTKVEIKR
modifications: DVD-Ig outer
B3: DVD466 DLL4 arm (antibody)
chain 1: EVQLVESGGGLVQPGGSLRLSCAASGFTFTDNWISWVRQAPGKGLEWVGYISPNSGFTYYADSVKGRFTISADTSKNTAYLQMNSLRAEDTAVYYCARDNFGGYFDYWGQGTLVTVSS
chain 2: DIQMTQSPSSLSASVGDRVTITCRASQDVSTAVAWYQQKPGKAPKLLIYSASFLYSGVPSRFSGSGSGTDFTLTISSLQPEDFATTYYCQQSYTGTVTFGQGTKVEIKR
modifications: DVD-Ig inner
B4: DVD471 DLL4 arm (antibody)
chain 1: EVQLVESGGGLVQPGGSLRLSCAASGFTFTDNWISWVRQAPGKGLEWVGYISPNSGFTYYADSVKGRFTISADTSKNTAYLQMNSLRAEDTAVYYCARDNFGGYFDYWGQGTLVTVSS
chain 2: DIQMTQSPSSLSASVGDRVTITCRASQDVSTAVAWYQQKPGKAPKLLIYSASFLYSGVPSRFSGSGSGTDFTLTISSLQPEDFATTYYCQQSYTGTVTFGQGTKVEIKR
modifications: DVD-Ig outer
B5: DVD469 DLL4 arm (antibody)
chain 1: EVQLVESGGGLVQPGGSLRLSCAASGFTFTDNWISWVRQAPGKGLEWVGYISPNSGFTYYADSVKGRFTISADTSKNTAYLQMNSLRAEDTAVYYCARDNFGGYFDYWGQGTLVTVSS
chain 2: DIQMTQSPSSLSASVGDRVTITCRASQDVSTAVAWYQQKPGKAPKLLIYSASFLYSGVPSRFSGSGSGTDFTLTISSLQPEDFATTYYCQQSYTGTVTFGQGTKVEIKR
modifications: DVD-Ig outer
B6: DVD493 DLL4 arm (antibody, V domains shown)
VH: EVQLQQSGPELVKPGASVKMSCKASGYTFTSYVINWVKQKPGQGLEWIGLINPYNDGTKYNEKFKVKATLTSDKSSSTAYMELSSLTSEDSAVYYCASYYYGSRYYFDYWGQGTTLTVSS
VL: DIQMTQSSSYLSVSLGGRVTITCKASDHINNWLAWYQQKPGNAPRLLISGATSLETGVPSRFSGSGSGKDYTLSITSLQTEDVATYYCQQYWSIPLTFGAGTKLELKR
modifications: DVD-Ig outer
B7: DVD498 DLL4 arm (antibody, V domains shown)
VH: EVQLQQSGPELVKPGASVKMSCKASGYTFTSYVINWVKQKPGQGLEWIGLINPYNDGTKYNEKFKVKATLTSDKSSSTAYMELSSLTSEDSAVYYCASYYYGSRYYFDYWGQGTTLTVSS
VL: DIQMTQSSSYLSVSLGGRVTITCKASDHINNWLAWYQQKPGNAPRLLISGATSLETGVPSRFSGSGSGKDYTLSITSLQTEDVATYYCQQYWSIPLTFGAGTKLELKR
modifications: DVD-Ig inner
B8: DVD505 DLL4 arm (antibody, V domains shown)
VH: EVQLQQSGPELVKPGASVKMSCKASGYTFTSYVINWVKQKPGQGLEWIGLINPYNDGTKYNEKFKVKATLTSDKSSSTAYMELSSLTSEDSAVYYCASYYYGSRYYFDYWGQGTTLTVSS
VL: DIQMTQSSSYLSVSLGGRVTITCKASDHINNWLAWYQQKPGNAPRLLISGATSLETGVPSRFSGSGSGKDYTLSITSLQTEDVATYYCQQYWSIPLTFGAGTKLELKR
modifications: DVD-Ig outer
B9: DVD504 DLL4 arm (antibody, V domains shown)
VH: EVQLQQSGPELVKPGASVKMSCKASGYTFTSYVINWVKQKPGQGLEWIGLINPYNDGTKYNEKFKVKATLTSDKSSSTAYMELSSLTSEDSAVYYCASYYYGSRYYFDYWGQGTTLTVSS
VL: DIQMTQSSSYLSVSLGGRVTITCKASDHINNWLAWYQQKPGNAPRLLISGATSLETGVPSRFSGSGSGKDYTLSITSLQTEDVATYYCQQYWSIPLTFGAGTKLELKR
modifications: DVD-Ig inner
B10: DVD491 DLL4 arm (antibody, V domains shown)
VH: EVQLQQSGPELVKPGASVKMSCKASGYTFTSYVINWVKQKPGQGLEWIGLINPYNDGTKYNEKFKVKATLTSDKSSSTAYMELSSLTSEDSAVYYCASYYYGSRYYFDYWGQGTTLTVSS
VL: DIQMTQSSSYLSVSLGGRVTITCKASDHINNWLAWYQQKPGNAPRLLISGATSLETGVPSRFSGSGSGKDYTLSITSLQTEDVATYYCQQYWSIPLTFGAGTKLELKR
modifications: DVD-Ig outer
B11: DVD510 DLL4 arm (antibody, V domains shown)
VH: EVQLQQSGPELVKPGASVKMSCKASGYTFTSYVINWVKQKPGQGLEWIGLINPYNDGTKYNEKFKVKATLTSDKSSSTAYMELSSLTSEDSAVYYCASYYYGSRYYFDYWGQGTTLTVSS
VL: DIQMTQSSSYLSVSLGGRVTITCKASDHINNWLAWYQQKPGNAPRLLISGATSLETGVPSRFSGSGSGKDYTLSITSLQTEDVATYYCQQYWSIPLTFGAGTKLELKR
modifications: DVD-Ig inner
B12: DVD523 DLL4 arm (antibody, V domains shown)
VH: EVQLQQSGPELEKPGASVKISCKASGYSFTGYNMNWVKQSNGKSLEWIGNIDPYFGGTNYNQKFKGKATLTVDKSSSTAYMQLKSLTSEDSAVYYCARNYDYDGGCFDYWGQGTTLTVSS
VL: QAVVTQESALTTSPGETVTLTCRSSTGAVTTSNYANWVQEKPDHLFTGLIGGTNNRAPGVPARFSGSLIGDKAALTITGAQTEDEAIYFCALWYSNHWVFGGGTKLTVLG
modifications: DVD-Ig outer
B13: DVD533 DLL4 arm (antibody, V domains shown)
VH: EVQLQQSGPELEKPGASVKISCKASGYSFTGYNMNWVKQSNGKSLEWIGNIDPYFGGTNYNQKFKGKATLTVDKSSSTAYMQLKSLTSEDSAVYYCARNYDYDGGCFDYWGQGTTLTVSS
VL: QAVVTQESALTTSPGETVTLTCRSSTGAVTTSNYANWVQEKPDHLFTGLIGGTNNRAPGVPARFSGSLIGDKAALTITGAQTEDEAIYFCALWYSNHWVFGGGTKLTVLG
modifications: DVD-Ig outer
B14: DVD526 DLL4 arm (antibody, V domains shown)
VH: EVQLQQSGPELEKPGASVKISCKASGYSFTGYNMNWVKQSNGKSLEWIGNIDPYFGGTNYNQKFKGKATLTVDKSSSTAYMQLKSLTSEDSAVYYCARNYDYDGGCFDYWGQGTTLTVSS
VL: QAVVTQESALTTSPGETVTLTCRSSTGAVTTSNYANWVQEKPDHLFTGLIGGTNNRAPGVPARFSGSLIGDKAALTITGAQTEDEAIYFCALWYSNHWVFGGGTKLTVLG
modifications: DVD-Ig inner
B15: DVD532 DLL4 arm (antibody, V domains shown)
VH: EVQLQQSGPELEKPGASVKISCKASGYSFTGYNMNWVKQSNGKSLEWIGNIDPYFGGTNYNQKFKGKATLTVDKSSSTAYMQLKSLTSEDSAVYYCARNYDYDGGCFDYWGQGTTLTVSS
VL: QAVVTQESALTTSPGETVTLTCRSSTGAVTTSNYANWVQEKPDHLFTGLIGGTNNRAPGVPARFSGSLIGDKAALTITGAQTEDEAIYFCALWYSNHWVFGGGTKLTVLG
modifications: DVD-Ig inner
B16: DVD525 DLL4 arm (antibody, V domains shown)
VH: EVQLQQSGPELEKPGASVKISCKASGYSFTGYNMNWVKQSNGKSLEWIGNIDPYFGGTNYNQKFKGKATLTVDKSSSTAYMQLKSLTSEDSAVYYCARNYDYDGGCFDYWGQGTTLTVSS
VL: QAVVTQESALTTSPGETVTLTCRSSTGAVTTSNYANWVQEKPDHLFTGLIGGTNNRAPGVPARFSGSLIGDKAALTITGAQTEDEAIYFCALWYSNHWVFGGGTKLTVLG
modifications: DVD-Ig outer
B17: DVD511 DLL4 arm (antibody, V domains shown)
VH: EVQLQQSGPELEKPGASVKISCKASGYSFTGYNMNWVKQSNGKSLEWIGNIDPYFGGTNYNQKFKGKATLTVDKSSSTAYMQLKSLTSEDSAVYYCARNYDYDGGCFDYWGQGTTLTVSS
VL: QAVVTQESALTTSPGETVTLTCRSSTGAVTTSNYANWVQEKPDHLFTGLIGGTNNRAPGVPARFSGSLIGDKAALTITGAQTEDEAIYFCALWYSNHWVFGGGTKLTVLG
modifications: DVD-Ig outer
B18: DVD449 DLL4 arm (antibody, V domains shown)
VH: QVQLVQSGAEVKKPGASVKISCKASGYSFTAYYIHWVKQAPGQGLEWIGYISSYNGATNYNQKFKGRVTFTTDTSTSTAYMELRSLRSDDTAVYYCARDYDYDVGMDYWGQGTLVTVSS
VL: DIVMTQSPDSLAVSLGERATISCRASESVDNYGISFMKWFQQKPGQPPKLLIYAASNQGSGVPDRFSGSGSGTDFTLTISSLQAEDVAVYYCQQSKEVPWTFGGGTKVEIKR
modifications: DVD-Ig outer
B19: DVD462 DLL4 arm (antibody, V domains shown)
VH: QVQLVQSGAEVKKPGASVKISCKASGYSFTAYYIHWVKQAPGQGLEWIGYISSYNGATNYNQKFKGRVTFTTDTSTSTAYMELRSLRSDDTAVYYCARDYDYDVGMDYWGQGTLVTVSS
VL: DIVMTQSPDSLAVSLGERATISCRASESVDNYGISFMKWFQQKPGQPPKLLIYAASNQGSGVPDRFSGSGSGTDFTLTISSLQAEDVAVYYCQQSKEVPWTFGGGTKVEIKR
modifications: DVD-Ig inner
B20: DVD441 DLL4 arm (antibody, V domains shown)
VH: QVQLVQSGAEVKKPGASVKISCKASGYSFTAYYIHWVKQAPGQGLEWIGYISSYNGATNYNQKFKGRVTFTTDTSTSTAYMELRSLRSDDTAVYYCARDYDYDVGMDYWGQGTLVTVSS
VL: DIVMTQSPDSLAVSLGERATISCRASESVDNYGISFMKWFQQKPGQPPKLLIYAASNQGSGVPDRFSGSGSGTDFTLTISSLQAEDVAVYYCQQSKEVPWTFGGGTKVEIKR
modifications: DVD-Ig outer
B21: DVD442 DLL4 arm (antibody, V domains shown)
VH: QVQLVQSGAEVKKPGASVKISCKASGYSFTAYYIHWVKQAPGQGLEWIGYISSYNGATNYNQKFKGRVTFTTDTSTSTAYMELRSLRSDDTAVYYCARDYDYDVGMDYWGQGTLVTVSS
VL: DIVMTQSPDSLAVSLGERATISCRASESVDNYGISFMKWFQQKPGQPPKLLIYAASNQGSGVPDRFSGSGSGTDFTLTISSLQAEDVAVYYCQQSKEVPWTFGGGTKVEIKR
modifications: DVD-Ig inner
B22: DVD454 DLL4 arm (antibody, V domains shown)
VH: QVQLVQSGAEVKKPGASVKISCKASGYSFTAYYIHWVKQAPGQGLEWIGYISSYNGATNYNQKFKGRVTFTTDTSTSTAYMELRSLRSDDTAVYYCARDYDYDVGMDYWGQGTLVTVSS
VL: DIVMTQSPDSLAVSLGERATISCRASESVDNYGISFMKWFQQKPGQPPKLLIYAASNQGSGVPDRFSGSGSGTDFTLTISSLQAEDVAVYYCQQSKEVPWTFGGGTKVEIKR
modifications: DVD-Ig inner

These binders were tested against DLL4 (human, UniProt Q9NR61) (assay: ELISA).
DLL4, sequence (Q9NR61 27-524): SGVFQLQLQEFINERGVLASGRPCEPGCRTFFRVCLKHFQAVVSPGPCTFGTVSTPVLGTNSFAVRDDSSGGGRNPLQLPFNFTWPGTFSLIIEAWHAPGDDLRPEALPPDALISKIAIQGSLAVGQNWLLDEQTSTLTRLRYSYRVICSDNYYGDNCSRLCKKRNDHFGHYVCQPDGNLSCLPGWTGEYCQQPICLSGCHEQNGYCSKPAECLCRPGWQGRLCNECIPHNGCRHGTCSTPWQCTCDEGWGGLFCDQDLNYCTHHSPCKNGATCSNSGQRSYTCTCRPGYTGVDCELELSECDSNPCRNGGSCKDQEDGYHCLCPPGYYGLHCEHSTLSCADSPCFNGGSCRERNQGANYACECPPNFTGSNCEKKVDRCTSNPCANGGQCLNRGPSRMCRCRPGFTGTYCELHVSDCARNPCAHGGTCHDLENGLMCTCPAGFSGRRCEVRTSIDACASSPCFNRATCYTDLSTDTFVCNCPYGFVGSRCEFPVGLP
An EC50 of 0.57 nM was found for B1 in this work.
An EC50 of 0.63 nM was found for B2 in this work.
An EC50 of 19.8 nM was found for B3 in this work.
An EC50 of 0.89 nM was found for B4 in this work.
An EC50 of 2.78 nM was found for B5 in this work.
An EC50 of 0.06 nM was found for B6 in this work.
An EC50 of 0.45 nM was found for B7 in this work.
An EC50 of 0.09 nM was found for B8 in this work.
An EC50 of 0.53 nM was found for B9 in this work.
An EC50 of 0.39 nM was found for B10 in this work.
An EC50 of 0.42 nM was found for B11 in this work.
An EC50 of 0.09 nM was found for B12 in this work.
An EC50 of 0.25 nM was found for B13 in this work.
An EC50 of 1.57 nM was found for B14 in this work.
An EC50 of 1.43 nM was found for B15 in this work.
An EC50 of 1 nM was found for B16 in this work.
An EC50 of 0.1 nM was found for B17 in this work.
An EC50 of 0.36 nM was found for B18 in this work.
An EC50 of 7.99 nM was found for B19 in this work.
An EC50 of 0.04 nM was found for B20 in this work.
An EC50 of 10.6 nM was found for B21 in this work.
An EC50 of 1.01 nM was found for B22 in this work.
